Measured values: patent US10704030B2, “P450-BM3 variants with improved activity” (Codexis, Inc., priority 2015, dated 2020)

Assays:
Type in all cases: biochemical
[1] = Validation of generalist properties: oxidation of diclofenac by lyophilized P450-BM3 variant, UPLC-MS; settings: [Diclofenac] = 1 mM; for TON: TON = [substrate]*% conversion/[P450]; for FIOPC (A07): fold improvement over parent MCYP-1.2-A07
How it was run: (§1)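 Lyophilized lysate of E. coli-expressed P450-BM3 variant (stock standardized to 12 μM heme) was incubated 24 h at 30 °C with 1 or 2 mM substrate, 1.0 mM NADP+, 25 mM glucose, 0.5 mg/mL glucose dehydrogenase and 5% DMSO in 100 mM potassium phosphate. Acetonitrile-quenched samples were analyzed by UPLC-MS (positive ESI).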

[2] = Validation of generalist properties: oxidation of loratadine by lyophilized P450-BM3 variant, UPLC-MS; settings: [Loratadine] = 1 mM; for TON: TON = [substrate]*% conversion/[P450]; for FIOPC (A07): fold improvement over parent MCYP-1.2-A07
How it was run: as §1

[3] = Validation of generalist properties: oxidation of imatinib by lyophilized P450-BM3 variant, UPLC-MS; settings: [Imatinib] = 1 mM; for TON: TON = [substrate]*% conversion/[P450]; for FIOPC (A07): fold improvement over parent MCYP-1.2-A07
How it was run: as §1

[4] = Validation of generalist properties: oxidation of gefitinib by lyophilized P450-BM3 variant, UPLC-MS; settings: [Gefitinib] = 1 mM; for TON: TON = [substrate]*% conversion/[P450]; for FIOPC (A07): fold improvement over parent MCYP-1.2-A07
How it was run: as §1

[5] = Validation of generalist properties over the four substrates screened
Experimental: For the production of lyophilized protein powders, LB agar plates supplemented with chloramphenicol (30 μg/mL) were streaked with E. coli containing a desired B. megaterium P450-BM3 variant in an IPTG-inducible vector. The plates were grown at 37° C. for 16 hrs before single clones were selected to inoculate a 15 mL Falcon™ tube (Fisher) containing TB media (3 mL) supplemented with chloramphenicol (30 μg/mL). The tube was shaken at 200 rpm, 30° C., and 85% humidity for 20-24 h to grow the cultures to saturation. Then, 2.5 mL of the overnight culture was used to inoculate sterile 1 L flasks containing TB medium (250 mL) supplemented with chloramphenicol (30 μg/mL), trace element solution (as described above), and 0.05 g/L ammonium iron (III) citrate. After being shaken at 250 rpm, 30° C., and 85% humidity to an OD600 of 0.8-1.2, P450 expression was induced by addition of IPTG (500 uM) and the heme precursor 5-aminolevulinic acid (5-ALA) to a final concentration of 500 uM. The cultures were grown for additional 20-24 hours and centrifuged in pre-weighed 250 mL centrifuge bottles for 20 minutes at 4000 rpm, 4° C. The supernatants were discarded, and the centrifuge bottles containing cell pellets were weighed. The pellets were resuspended in 50 mM potassium phosphate buffer with 2 mM DTT, pH 8.0 (5 mL of buffer per gram of cell pellet). The cells were lysed using a microfluidizer homogenizer, and the suspensions of cells and lysate were collected in sterile 50 mL centrifuge tubes. The samples were centrifuged for 30 minutes at 10,000 rpm, 4° C. The clarified lysate was collected into a plastic petri plate and frozen at −80° C. prior to lyophilization. The enzyme-containing lysates were lyophilized using standard methods known in the art.
Enzyme stocks (˜12 μM) were prepared by dissolving ˜20 mg of each enzyme in 100 mM potassium phosphate buffer, pH 8.0 (1 mL). The concentration of each enzyme stock solution was determined by the UV-visible absorption spectroscopy (after centrifugation to remove particulates) and diluted to standardize at 12 μM heme protein. Substrate solutions were prepared by dissolving each substrate in DMSO to reach a final concentration of 20 mM or 40 mM. Reaction mix (235 μL) followed by enzyme solution (50 μL) was added to the plates. The substrate stock solution was added to the enzyme solutions (15 μL at the two different concentrations). Each reaction contained 100 mM potassium phosphate, 1.0 mM NADP+, 25 mM glucose, 0.5 mg/mL glucose dehydrogenase, 5% DMSO and substrate at 1 or 2 mM. Loratadine, imatinib, and gefitinib (See, FIG. 1) were selected as substrates in addition to diclofenac to validate improved BM3 variants. The reactions were shaken at 450 rpm at 30° C. over 24 hours. All reactions were diluted with acetonitrile to a final concentration of 0.5 mM substrate. The plates were then centrifuged at 3,000 g for 1 hour at 20° C. The supernatant was diluted 1:1 with acetonitrile, filtered using a 0.4 micron filter, and analyzed by UPLC-MS.
For UPLC-MS analysis, the quenched and filtered reactions were transferred to 96-well HTP plates for analysis by UPLC on a Waters Acquity H-class system equipped with an autosampler. 1 uL of quenched sample was injected onto an Acquity UPLC HSS T3 column, 100 Å, (1.8 um; 2.1×100 mm). […] Column eluent was monitored by PDA (200-600 nm) prior to MS analysis in positive ESI mode (desolvation temperature 350° C., 3.25 kV spray voltage, cone voltage 25V). […]

Row | Molecule | % Conv. [1] | TON [1] | FIOPC (A07) [1] | % Conv. [2] | TON [2] | FIOPC (A07) [2] | % Conv. [3] | TON [3] | FIOPC (A07) [3] | % Conv. [4] | TON [4] | FIOPC (A07) [4] | performance (% conversion at 1 mM substrate loading) over the substrates screened, in words [5]
1 | Variant 14: P450-BM3 variant of SEQ ID NO: 4: C48S; I95P; G115R; L216Y; D232H; M491A; N574T; D722S (protein, P450_BM3, I95P; G115R; L216Y; D232H; M491A; N574T; D722S) MTIKEMPQPKTFGELKNLPLLNTDKPVQALMKIADELGEIFKFEAPGSVTRYLSSQRLIKEACDESRFDKNLSQALKFARDFAGDGLVTSWTHEPNWKKAHNILLPSFSQQAMKRYHAMMVDIAVQLVQKWERLNADEHIEVSEDMTRLTLDTIGLCGFNYRFNSFYRDQPHPFIISMVRALDEVMNKLQRANPDDPAYDENKRQCQEDIKVMNDYVDKIIADRKARGEQSHDLLTQMLNGKDPETGEPLDDGNISYQIITFLIAGHETTSGLLSFALYFLVKNPHVLQKVAEEAARVLVDPVPSYKQVKQLKYVGMVLNEALRLWPTAPAFSLYAKEDTVLGGEYPLEKGDEVMVLIPQLHRDKTIWGDDVEEFRPERFENPSAIPQHAFKPFGNGQRACIGQQFALHEATLVLGMMLKHFDFEDHTNYELDIKETLTLKPEGFVVKAKSKKIPLGGIPSPSTEQSAKKVRKKAENAHNTPLLVLYGSNAGTAEGTARDLADIAMSKGFAPQVATLDSHAGNLPREGAVLIVTASYNGHPPDNAKQFVDWLDQASADEVKGVRYSVFGCGDKTWATTYQKVPAFIDETLAAKGAENIADRGEADASDDFEGTYEEWREHMWSDVAAYFNLDIENSEDNKSTLSLQFVDSAADMPLAKMHGAFSTNVVASKELQQPGSARSTRHLEIELPKEASYQEGDHLGVIPRNYEGIVNRVTARFGLSASQQIRLEAEEEKLAHLPLAKTVSVEELLQYVELQDPVTRTQLRAMAAKTVCPPHKVELEALLEKQAYKEQVLAKRLTMLELLEKYPACEMKFSEFIALLPSIRPRYYSISSSPRVDEKQASITVSVVSGEAWSGYGEYKGIASNYLAELQEGDTITCFISTPQSEFTLPKDPETPLIMVGPGTGVAPFRGFVQARKQLKEQGQSLGEAHLYFGCRSPHEDYLYQEELENAQSEGIITLHTAFSRMPNQPKTYVQHVMEQDGKKLIELLDQGAHFYICGDGSQMAPAVEATLMKSYADVHQVSEADARLWLQQLEEKGRYAKDVWAG | ++++ (15.01-20.00) | ‡‡‡‡ (10000-50000) | ** (3.01-5.0) | +++ (10.01-15.00) | ‡‡‡ (5001-10000) | * (0.0-3.0) | +++ (10.01-15.00) | ‡‡‡ (5001-10000) | * (0.0-3.0) | ++++ (15.01-20.00) | ‡‡‡‡ (10000-50000) | **** (10.01-15.00) | moderate activity for all four substrates
2 | Variant 15: P450-BM3 variant of SEQ ID NO: 4: K32R; C48S; I95P; L216Y; D232H; E349T; M491A; N574T; T577A; E619D; D722S (protein, P450_BM3, C48S; I95P; L216Y; D232H; E349T; M491A; N574T; T577A; E619D; D722S) MTIKEMPQPKTFGELKNLPLLNTDKPVQALMRIADELGEIFKFEAPGSVTRYLSSQRLIKEACDESRFDKNLSQALKFARDFAGDGLVTSWTHEPNWKKAHNILLPSFSQQAMKGYHAMMVDIAVQLVQKWERLNADEHIEVSEDMTRLTLDTIGLCGFNYRFNSFYRDQPHPFIISMVRALDEVMNKLQRANPDDPAYDENKRQCQEDIKVMNDYVDKIIADRKARGEQSHDLLTQMLNGKDPETGEPLDDGNISYQIITFLIAGHETTSGLLSFALYFLVKNPHVLQKVAEEAARVLVDPVPSYKQVKQLKYVGMVLNEALRLWPTAPAFSLYAKEDTVLGGEYPLTKGDEVMVLIPQLHRDKTIWGDDVEEFRPERFENPSAIPQHAFKPFGNGQRACIGQQFALHEATLVLGMMLKHFDFEDHTNYELDIKETLTLKPEGFVVKAKSKKIPLGGIPSPSTEQSAKKVRKKAENAHNTPLLVLYGSNAGTAEGTARDLADIAMSKGFAPQVATLDSHAGNLPREGAVLIVTASYNGHPPDNAKQFVDWLDQASADEVKGVRYSVFGCGDKTWAATYQKVPAFIDETLAAKGAENIADRGEADASDDFEGTYEEWRDHMWSDVAAYFNLDIENSEDNKSTLSLQFVDSAADMPLAKMHGAFSTNVVASKELQQPGSARSTRHLEIELPKEASYQEGDHLGVIPRNYEGIVNRVTARFGLSASQQIRLEAEEEKLAHLPLAKTVSVEELLQYVELQDPVTRTQLRAMAAKTVCPPHKVELEALLEKQAYKEQVLAKRLTMLELLEKYPACEMKFSEFIALLPSIRPRYYSISSSPRVDEKQASITVSVVSGEAWSGYGEYKGIASNYLAELQEGDTITCFISTPQSEFTLPKDPETPLIMVGPGTGVAPFRGFVQARKQLKEQGQSLGEAHLYFGCRSPHEDYLYQEELENAQSEGIITLHTAFSRMPNQPKTYVQHVMEQDGKKLIELLDQGAHFYICGDGSQMAPAVEATLMKSYADVHQVSEADARLWLQQLEEKGRYAKDVWAG | ++++ (15.01-20.00) | ‡‡‡‡ (10000-50000) | * (0.0-3.0) | ++++ (15.01-20.00) | ‡‡‡‡ (10000-50000) | * (0.0-3.0) | ++++ (15.01-20.00) | ‡‡‡ (5001-10000) | ** (3.01-5.0) | ++++ (15.01-20.00) | ‡‡‡‡ (10000-50000) | **** (10.01-15.00) | moderate activity for all four substrates
